Laboratory results as given in the supplement of paper PMC10567573.

B1: TRIM63 (parent)
chain: QEKKLSFIEALIQQYQEQLDKSTK
B2: HESX1 (parent)
chain: SKYENYFSASERLSLKRELSWYRG

Variants of: B1
Assay: protein stability index of a GFP-peptide fusion (GPS, HEK-293T) (PSI 1-6); higher = more stable
Conditions: c terminus: a fixed tail appended
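Further: lentivirally expressed fusions sorted by FACS into six bins by GFP to DsRed ratio, PSI derived from sequencing read proportions per bin multiplied by bin number.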

| Variant | protein stability index |
| --- | --- |
| QTKKLSFIEALIQQYQEQLDKSTK [E2T] | 2 |
| QCKKLSFIEALIQQYQEQLDKSTK [E2C] | 1.52 |
| QIKKLSFIEALIQQYQEQLDKSTK [E2I] | 1.92 |
| QNKKLSFIEALIQQYQEQLDKSTK [E2N] | 1.9 |
| QFKKLSFIEALIQQYQEQLDKSTK [E2F] | 2.44 |
| QGKKLSFIEALIQQYQEQLDKSTK [E2G] | 2.93 |
| QKKKLSFIEALIQQYQEQLDKSTK [E2K] | 1.81 |
| QSKKLSFIEALIQQYQEQLDKSTK [E2S] | 1.87 |
| QAKKLSFIEALIQQYQEQLDKSTK [E2A] | 1.63 |
| QPKKLSFIEALIQQYQEQLDKSTK [E2P] | 2.93 |
| QHKKLSFIEALIQQYQEQLDKSTK [E2H] | 2.58 |
| QQKKLSFIEALIQQYQEQLDKSTK [E2Q] | 2.25 |
| QRKKLSFIEALIQQYQEQLDKSTK [E2R] | 2.93 |
| QLKKLSFIEALIQQYQEQLDKSTK [E2L] | 2.73 |
| QVKKLSFIEALIQQYQEQLDKSTK [E2V] | 1.74 |
| QMKKLSFIEALIQQYQEQLDKSTK [E2M] | 1.92 |
| QYKKLSFIEALIQQYQEQLDKSTK [E2Y] | 2.75 |
| QDKKLSFIEALIQQYQEQLDKSTK [E2D] | 2.74 |
| QWKKLSFIEALIQQYQEQLDKSTK [E2W] | 2 |

| Variant | protein stability index |
| --- | --- |
| QEAKLSFIEALIQQYQEQLDKSTK [K3A] | 2.67 |
| WEKKLSFIEALIQQYQEQLDKSTK [Q1W] | 2.76 |
| HEKKLSFIEALIQQYQEQLDKSTK [Q1H] | 2.28 |
| DEKKLSFIEALIQQYQEQLDKSTK [Q1D] | 2.21 |
| GEKKLSFIEALIQQYQEQLDKSTK [Q1G] | 2.31 |
| TEKKLSFIEALIQQYQEQLDKSTK [Q1T] | 2.23 |
| KEKKLSFIEALIQQYQEQLDKSTK [Q1K] | 2.34 |
| MEKKLSFIEALIQQYQEQLDKSTK [Q1M] | 1.99 |
| EEKKLSFIEALIQQYQEQLDKSTK [Q1E] | 2.74 |
| IEKKLSFIEALIQQYQEQLDKSTK [Q1I] | 2.03 |
| LEKKLSFIEALIQQYQEQLDKSTK [Q1L] | 1.49 |
| VEKKLSFIEALIQQYQEQLDKSTK [Q1V] | 2.39 |
| NEKKLSFIEALIQQYQEQLDKSTK [Q1N] | 2.49 |
| REKKLSFIEALIQQYQEQLDKSTK [Q1R] | 2.48 |
| YEKKLSFIEALIQQYQEQLDKSTK [Q1Y] | 2.02 |
| PEKKLSFIEALIQQYQEQLDKSTK [Q1P] | 2.39 |
| FEKKLSFIEALIQQYQEQLDKSTK [Q1F] | 1.91 |
| SEKKLSFIEALIQQYQEQLDKSTK [Q1S] | 2.4 |
| CEKKLSFIEALIQQYQEQLDKSTK [Q1C] | 2.37 |

Variants of: B2
Assay: as above
Conditions: c terminus: a fixed tail appended

| Variant | protein stability index |
| --- | --- |
| SKYENYFSASERLSLKRELSWWRG [Y22W] | 2.4 |
| SKYENYFSASERLSLKRELSWCRG [Y22C] | 2.27 |
| SKYENYFSASERLSLKRELSWPRG [Y22P] | 2.29 |
| SKYENYFSASERLSLKRELSWARG [Y22A] | 1.82 |
| SKYENYFSASERLSLKRELSWSRG [Y22S] | 2.22 |
| SKYENYFSASERLSLKRELSWQRG [Y22Q] | 1.7 |
| SKYENYFSASERLSLKRELSWDRG [Y22D] | 3.06 |
| SKYENYFSASERLSLKRELSWTRG [Y22T] | 1.9 |
| SKYENYFSASERLSLKRELSWKRG [Y22K] | 2.46 |
| SKYENYFSASERLSLKRELSWHRG [Y22H] | 2.56 |
| SKYENYFSASERLSLKRELSWRRG [Y22R] | 1.9 |
| SKYENYFSASERLSAKRELSWYRG [L15A] | 2.72 |
| SKYENYFSASERLSYKRELSWYRG [L15Y] | 2.13 |
| SKYENYFSASERLSKKRELSWYRG [L15K] | 2.47 |
| SKYENYFSASERLSDKRELSWYRG [L15D] | 2.65 |
| SKYENYFSASERLSRKRELSWYRG [L15R] | 2.24 |
| SKYENYFSASERLSIKRELSWYRG [L15I] | 1.86 |
| SKYENYFSASERLSEKRELSWYRG [L15E] | 2.22 |
| SKYENYFSASERLSHKRELSWYRG [L15H] | 2.07 |

| Variant | protein stability index |
| --- | --- |
| SKYENYFSASERLSVKRELSWYRG [L15V] | 2.06 |
| SKYENYFSASERLSTKRELSWYRG [L15T] | 1.17 |
| SKYENYFSASERLSFKRELSWYRG [L15F] | 1.61 |
| SKYENYFSASERLSMKRELSWYRG [L15M] | 1.72 |
| SKYENYFSASERLSQKRELSWYRG [L15Q] | 2.95 |
| SKYENYFSASERLSWKRELSWYRG [L15W] | 2.95 |
| SKYENYFSASERLSCKRELSWYRG [L15C] | 1.94 |
| SKYENYFSASERLSNKRELSWYRG [L15N] | 2.33 |
| SKYENYFSASERLSPKRELSWYRG [L15P] | 2.57 |
| SKYENYFSASERLSSKRELSWYRG [L15S] | 2.41 |
| SKYENYFSASERLSLKRESSWYRG [L19S] | 3.25 |
| SKYENYFSASERLSLKREISWYRG [L19I] | 2.52 |
| SKYENYFSASERLSLKRECSWYRG [L19C] | 2.01 |
| SKYENYFSASERLSLKRETSWYRG [L19T] | 2.31 |
| SKYENYFSASERLSLKREWSWYRG [L19W] | 1.41 |
| SKYENYFSASERLSLKREKSWYRG [L19K] | 1.81 |
| SKYENYFSASERLSLKREHSWYRG [L19H] | 2.66 |
| SKYENYFSASERLSLKRERSWYRG [L19R] | 2.18 |
| SKYENYFSASERLSLKREASWYRG [L19A] | 2.62 |

| Variant | protein stability index |
| --- | --- |
| SKYENYFSASERLSLKREFSWYRG [L19F] | 2.68 |
| SKYENYFSASERLSLKREMSWYRG [L19M] | 1.95 |
| SKYENYFSASERLSLKREGSWYRG [L19G] | 1.87 |
| SKYENYFSASERLSLKREPSWYRG [L19P] | 2 |
| SKYENYFSASERLSLKREVSWYRG [L19V] | 1.79 |
| SKYENYFSASERLSLKREESWYRG [L19E] | 2.08 |
| SKYENYFSASERLSLKEELSWYRG [R17E] | 1.91 |
| SKYENYFSASERLSLKLELSWYRG [R17L] | 1.38 |
| SKYENYFSASERLSLKWELSWYRG [R17W] | 1.21 |
| SKYENYFSASERLSLKMELSWYRG [R17M] | 2.72 |
| SKYENYFSASERLSLKCELSWYRG [R17C] | 1.61 |
| SKYENYFSASERLSLKTELSWYRG [R17T] | 1.9 |
| SKYENYFSASERLSLKSELSWYRG [R17S] | 1.56 |
| SKYENYFSASERLSLKQELSWYRG [R17Q] | 2.29 |
| SKYENYFSASERLSLKGELSWYRG [R17G] | 1.78 |
| SKYENYFSASERLSLKDELSWYRG [R17D] | 2.21 |
| SKYENYFSASERLSLKAELSWYRG [R17A] | 2.04 |
| SKYENYFSASERLSLKHELSWYRG [R17H] | 2.1 |
